Data set [1] in a line: Photophysical properties of the complexes (λ max, quantum yield, life-time). Format: physicochemical. To be noted: solvent MeOH. The text has this:
The photophysical characteristics of some complexes are described in Table 3. […] The values of the quantum yields (Φcm) must be considered to have a margin of error of ±15%. All these complexes have quantum yields above 10%, without adding potassium fluorides. The life-times (τ0) are at least 0.7 ms, which is favorable for FRET experiments. Finally, the complexes comprising solubilizer groups of the sulfonate or carboxylate type are highly soluble in aqueous biological buffers. The presence of charges makes complexes water-soluble that were not so initially.

The nature of data set [2]: Determination of Log P (octanol/water partition coefficient) of europium complexes. It counts as physicochemical. To be noted: water/octanol mixtures 2:1, 1:1, 1:2, about 2 μM, ±20%. The text has this: Log P is a measure of the differential solubility of chemical compounds in two solvents (octanol/water partition coefficient). Log P is equal to the logarithm of the ratio of the concentrations of the substance under investigation in octanol and in water. Log P=Log(Coct/Cwater). This value ascertains the hydrophilic or hydrophobic (lipophilic) character of a molecule. In fact, if Log P is positive and very high, this expresses the fact that the molecule considered is far more soluble in octanol than in water, which reflects its lipophilic character, and vice versa. Zero or negative Log P signifies that the molecule is of a hydrophilic character.
Three equimolar solutions of europium complex were prepared in methanol. The solvent was removed under reduced pressure and the solid that remained was dissolved and stirred for 24 h in a water/octanol mixture (2:1, 1:1, 1:2), (0.9 mL) giving a total concentration of about 2 μM. After equilibration, an emission spectrum of each phase was recorded in methanol (50 μL of solution in 1 mL of methanol). For each mixture, the value of log P was calculated using the following equation: […]

A word on the logP: it is a log measure of how a compound divides between an organic and an aqueous phase. Regarding `COc1ccc(C#Cc2cc(CN3CCN(Cc4cc(C#Cc5ccc(OC)cc5)cc(P(C)(=O)O)n4)CCN(Cc4cc(C#Cc5ccc(OCC(=O)NCC(=O)N[C@@H](CCCNC(=N)N)C(=O)N[C@@H](CCCNC(=N)N)C(=O)N[C@@H](CCCNC(=N)N)C(=O)N[C@@H](CCCNC(=N)N)C(=O)N[C@@H](CCCNC(=N)N)C(=O)N[C@@H](CCCNC(=N)N)C(=O)N[C@@H](CCCNC(=N)N)C(=O)O)cc5)cc(P(C)(=O)O)n4)CC3)nc(P(C)(=O)O)c2)cc1` [Compound 89], in data set [1], the λ max is 330 nm and the τ0 was determined as 1.12 ms. Besides, in data set [1] (margin of error ±15%), the Φem is given as 50%. The logP in data set [2] was determined as 0.3.
